These results are taken from publication doi:10.1101/2023.05.29.542693 (bioRxiv, 2023).

The target of data set [1] is Escherichia coli GroEL (wild-type, tetradecamer) (E. coli, UniProt P0A6F5 1-548). In words: cryo-EM structure.
The data set “cryo-EM structure” deals with the molecule itself. As to the kind of experiment: cryo-EM structure.

Chain of Escherichia coli GroEL (wild-type, tetradecamer) (P0A6F5 whole entry): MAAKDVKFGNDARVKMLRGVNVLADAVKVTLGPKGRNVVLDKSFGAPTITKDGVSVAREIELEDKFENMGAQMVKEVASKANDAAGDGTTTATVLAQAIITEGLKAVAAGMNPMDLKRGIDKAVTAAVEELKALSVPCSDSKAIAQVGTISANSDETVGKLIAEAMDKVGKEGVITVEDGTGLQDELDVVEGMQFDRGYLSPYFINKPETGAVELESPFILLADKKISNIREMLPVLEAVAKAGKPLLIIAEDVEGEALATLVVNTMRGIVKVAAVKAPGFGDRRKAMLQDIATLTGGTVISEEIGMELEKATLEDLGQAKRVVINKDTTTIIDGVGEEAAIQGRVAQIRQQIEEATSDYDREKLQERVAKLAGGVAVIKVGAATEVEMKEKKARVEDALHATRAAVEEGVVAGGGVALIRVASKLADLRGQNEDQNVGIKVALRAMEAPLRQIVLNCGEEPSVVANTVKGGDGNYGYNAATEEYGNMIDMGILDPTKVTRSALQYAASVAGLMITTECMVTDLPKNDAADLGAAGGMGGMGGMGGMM

B1: Escherichia coli GroES (heptameric co-chaperonin) (natural protein)
chain: MNIRPLHDRVIVKRKEVETKSAGGIVLTGSAAAKSTRGEVLAVGNGRILENGEVKPLDVKVGDIVIFNDGYGVKSEKIDNEEVLIMSESDILAIVEA
As for B1, the binding result (in data set [1]; in the data set “cryo-EM structure”) was “binds” each time.
